This is an account of results in US20220204602A1 (University of Pennsylvania, published 2022).

Sequences and labels used below:
B1: Cyno FcRn (receptor, Cynomolgus)
chain 1: AESHLSLLYHLTAVSSPAPGTPAFWVSGWLGPQQYLSYDSLRGQAEPCGAWVWENQVSWYWEKETTDLRIKEKLFLEAFKALGGKGPYTLQGLLGCELSPDNTSVPTAKFALNGEEFMNFDLKQGTWGGDWPEALAISQRWQQQDKAANKELTFLLFSCPHRLREHLERGRGNLEWKEPPSMRLKARPGNPGFSVLTCSAFSFYPPELQLRFLRNGMAAGTGQGDFGPNSDGSFHASSSLTVKSGDEHHYCCIVQHAGLAQPLRVELETPAKSS
chain 2: IQRTPKIQVYSRHPPENGKPNFLNCYVSGFHPSDIEVDLLKNGEKMGKVEHSDLSFSKDWSFYLLYYTEFTPNEKDEYACRVNHVTLSGPRTVKWDRDM
notes: also called Cynomolgus FcRn; purified Cyno FcRn

Assay [1] deals with T1, anti-C5 mAb/FH SCR1-5 fusion protein FMEH-IgG4PLA-FH1-5 (human, UniProt P08603 19-322, limits assumed).
T1 construct: domain: SCR 1-5; also called FMEH-FH1-5; FMEH-IgG4PLA-FH SCR1-5; not shown: human light chain constant region
Description: SPR (Biacore-3000), Cyno FcRn amine-coupled on CM5 chip (200 RU), fusion protein as analyte, pH 6.0, bivalent binding model. On the technique in general: Surface plasmon resonance follows binding to a sensor surface in real time, without labels.

For assay [2], the target named is T2, human FcRn (human, UniProt P55899 24-297; P61769 21-119, limits assumed).
T2 construct: also called purified human FcRn
Description: SPR (Biacore-3000), human FcRn amine-coupled on CM5 chip (280 RU), antibody as analyte, pH 6.0, bivalent binding model.
Description: Biacore analysis was performed on a Biacore-3000 instrument. The chip was regenerated between each binding using 7.4 pH Buffer.
The carboxylated dextran matrix of a CM5 sensor chip was used to couple the purified human or Cyno FcRn, by amine coupling chemistry to obtain 280 RU or 200 RU surface density, respectively. […] The data were analyzed by the BIA evaluation software 3.2 assuming bivalent binding model.

Assay [3] has as its target B1. Description: SPR (Biacore-3000), Cyno FcRn amine-coupled on CM5 chip (200 RU), antibody as analyte, pH 6.0, bivalent binding model.
Description: Purified Cyno FcRn was coupled onto CM5 chip using the amine coupling method(200RU). Biacore analysis was performed on a Biacore-3000 instrument. The chip was regenerated between each binding using 7.4 pH Buffer.
Affinity analysis of FMEH-IgG4PLA and FMEH-IgG4PLA-FH1-5 to human or Cynomolgus FcRn: Surface Plasmon resonance analysis was used to measure the association and dissociation rate constant for binding of FMEH-IgG4PLA and FMEH-IgG4PLA-FH1-5 to immobilized human or Cyno FcRn, using BIAcore 3000 instrument (Biacore AB, Uppsala, Sweden) and all Biacore experiments were performed at 25° C. The carboxylated dextran matrix of a CM5 sensor chip was used to couple the purified human or Cyno FcRn, by amine coupling chemistry to obtain 280 RU or 200 RU surface density, respectively. […] The data were analyzed by the BIA evaluation software 3.2 assuming bivalent binding model.

T2 sequence (P61769 21-119 limits assumed, form in doubt, one chain of several): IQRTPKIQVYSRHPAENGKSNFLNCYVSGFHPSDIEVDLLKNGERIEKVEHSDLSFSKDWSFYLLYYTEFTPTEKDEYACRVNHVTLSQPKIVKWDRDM
T1 sequence (P08603 other isoform, or with tags, fused parts or gaps limits assumed): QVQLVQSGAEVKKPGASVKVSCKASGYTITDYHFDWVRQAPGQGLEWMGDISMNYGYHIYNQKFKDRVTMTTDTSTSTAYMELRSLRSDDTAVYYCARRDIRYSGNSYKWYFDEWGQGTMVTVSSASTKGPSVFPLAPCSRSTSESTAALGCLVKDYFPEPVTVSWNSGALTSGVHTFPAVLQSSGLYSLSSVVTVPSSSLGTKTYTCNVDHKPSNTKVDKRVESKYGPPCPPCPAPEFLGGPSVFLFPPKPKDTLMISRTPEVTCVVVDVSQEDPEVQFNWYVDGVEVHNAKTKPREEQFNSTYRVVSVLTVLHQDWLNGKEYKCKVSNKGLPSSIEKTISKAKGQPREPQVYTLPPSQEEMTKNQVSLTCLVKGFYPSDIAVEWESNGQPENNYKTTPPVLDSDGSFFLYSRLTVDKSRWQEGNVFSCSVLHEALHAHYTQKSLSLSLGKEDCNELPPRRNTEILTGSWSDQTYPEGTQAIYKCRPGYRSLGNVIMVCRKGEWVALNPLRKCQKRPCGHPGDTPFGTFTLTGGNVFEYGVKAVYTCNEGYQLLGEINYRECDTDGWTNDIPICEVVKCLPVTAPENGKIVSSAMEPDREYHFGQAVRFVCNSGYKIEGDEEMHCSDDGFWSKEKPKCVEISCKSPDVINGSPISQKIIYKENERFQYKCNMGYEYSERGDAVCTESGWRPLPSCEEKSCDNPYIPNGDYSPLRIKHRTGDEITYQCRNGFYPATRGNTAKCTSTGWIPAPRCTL

In assay [1], B1 returned a Kd of 39.1 nM.

B2: anti-C5 mAb FMEH-IgG4PLA (antibody)
heavy: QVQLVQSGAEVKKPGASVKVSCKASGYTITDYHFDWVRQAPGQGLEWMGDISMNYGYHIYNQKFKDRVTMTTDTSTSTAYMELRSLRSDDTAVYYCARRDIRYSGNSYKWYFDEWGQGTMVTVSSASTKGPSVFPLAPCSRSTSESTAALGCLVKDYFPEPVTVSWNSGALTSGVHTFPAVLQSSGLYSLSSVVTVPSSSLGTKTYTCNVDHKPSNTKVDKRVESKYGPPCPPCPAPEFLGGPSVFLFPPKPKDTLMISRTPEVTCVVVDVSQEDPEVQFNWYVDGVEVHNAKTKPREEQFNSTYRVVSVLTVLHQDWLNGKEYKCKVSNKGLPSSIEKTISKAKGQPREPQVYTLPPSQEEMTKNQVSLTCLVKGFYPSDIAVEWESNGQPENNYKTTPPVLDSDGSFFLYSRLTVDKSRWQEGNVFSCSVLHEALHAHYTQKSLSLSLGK
light: DIQLTQSPSFLSASVGDRVTITCRTSKSISKHLAWYQQKPGKAPKLLIYSGSTLQSGVPSRFSGSGSGTEFTLTISSLQPEDFATYYCQQHNEYPYTFGQGTKLEIK
notes: also called FMEH PLA; FMEH-PLA; not shown: human light chain constant region
As to B2, the Kd in assay [2] came to 6.47 nM; in assay [3], 14 nM.
